Data reported in the supplement of paper PMC7877785.
± gives the uncertainty stated by the source.

Assay: self-splicing fitness, log relative to wild type (ln ratio); higher = more splicing; Tetrahymena group I intron in knt gene, E. coli kanamycin selection, DiMSum; sequences stand for … in CUCUCU…GGAGGGAAAAGUUAUCAGGCAUGCACCUGGUAGCUAGUCUUUAAACCAAUAGAUUGCAUCGGUUUAAAAGGCAAGACCGUCAAAUUGCGGGAAAGGGGUCAACAGCCGUUCAGUACCAAGUCUCAGGGGAAACUUUGAGAUGGCCUUGCAAAGGGUAUGGUAAUAAGCUGACGGACAUGGUCCUAACCACGCAGCCAAGUCCUAAGUCAACAGAUCUUCUGUUGAUAUGGAUGCAGUUCACAGACUAAAUGUCGGUCGGGGAAGAUGUAUUCUUCUCAUAAGAUAUAGUCGGACCUCUCCUUAAUGGGAGCUAGCGGAUGAAGUGAUGCAACACUGGAGCCGCUGGGAACUAAUUUGUAUGCGAAAGUAUAUUGAUUAGUUUUGGAGUACUCGUGGUCG
How it was run: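 DiMSum derived fitness as the error-weighted combination of fold changes across replicates, kanamycin versus no kanamycin, normalised to wild type. E. coli BL21(DE3) held the library, which randomised all eight P1ex-region intron nucleotides within the knt kanamycin-resistance gene on pET-22b(+). Six replicate transformations grew overnight at 37°C or 30°C on LB agar with or without 25 μg/mL kanamycin, also containing 100 μg/mL carbenicillin, 50 μM IPTG and 0.2% rhamnose, and pooled colonies were amplicon-sequenced on an Illumina HiSeq 2500.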

Sequence | self-splicing fitness (ln) (30 °C) | self-splicing fitness (ln) (37 °C)
UCAAAGCAAUAUUACGCAAA | -2.5 ± 0.23 | -2.19 ± 0.31
AAAUAGCAAUAUUACGUAGA | -3.32 ± 0.17 | -0.484 ± 0.1
CACGAGCAAUAUUACGGGGC | -3.02 ± 0.14 | -2.42 ± 0.19
AAAAAGCAAUAUUACGCGGC | -3.53 ± 0.26 | -2.15 ± 0.27
CGGGAGCAAUAUUACGAUCC | -3.35 ± 0.21 | -1.68 ± 0.22
UUGCAGCAAUAUUACGGUCG | -0.4 ± 0.089 | 0.21 ± 0.12
UGAGAGCAAUAUUACGUGGU | -2.67 ± 0.14 | -2.61 ± 0.2
CCGGAGCAAUAUUACGUAAU | -3.95 ± 0.15 | -3.36 ± 0.23
CGCAAGCAAUAUUACGACGU | -1.73 ± 0.068 | -0.28 ± 0.069
GGAAAGCAAUAUUACGAAAA | -1.04 ± 0.48 | 
AUUCAGCAAUAUUACGGCGG | -1.77 ± 0.1 | -1.77 ± 0.11
UCGUAGCAAUAUUACGUCGA | -2.49 ± 0.17 | -1.91 ± 0.15
UCUCAGCAAUAUUACGUCCA | -2.72 ± 0.16 | -1.35 ± 0.2
UUCCAGCAAUAUUACGGACU | -2.17 ± 0.14 | -0.74 ± 0.15
UCUCAGCAAUAUUACGUUGA | -2.9 ± 0.2 | -2.93 ± 0.24
UCAAAGCAAUAUUACGUGCA | -0.542 ± 0.048 | 0.0292 ± 0.065
CGGAAGCAAUAUUACGAUCG | -1.86 ± 0.1 | -1.07 ± 0.14
CGCAAGCAAUAUUACGCGGU | -2.75 ± 0.11 | -2.44 ± 0.17
AACAAGCAAUAUUACGCUAA | -2.12 ± 0.11 | -0.523 ± 0.091
AGUAAGCAAUAUUACGGGAU | -3.01 ± 0.25 | -1.12 ± 0.15
AGUCAGCAAUAUUACGCAGC | -2.28 ± 0.15 | -1.22 ± 0.16
CUAGAGCAAUAUUACGCGCG | -0.479 ± 0.11 | 0.603 ± 0.16
UACCAGCAAUAUUACGUAGG | -3.19 ± 0.2 | -2.74 ± 0.24
GAUUAGCAAUAUUACGUCCU | -1.08 ± 0.14 | -0.47 ± 0.18

Sequence | self-splicing fitness (ln) (30 °C) | self-splicing fitness (ln) (37 °C)
CAUCAGCAAUAUUACGUUCA | -2.66 ± 0.16 | -1.77 ± 0.15
UCGUAGCAAUAUUACGGUAU | -2.96 ± 0.22 | -1.93 ± 0.28
GCCCAGCAAUAUUACGUAUG | -3.42 ± 0.18 | -2.09 ± 0.18
UGACAGCAAUAUUACGAGCA | -0.681 ± 0.051 | 0.236 ± 0.064
GCACAGCAAUAUUACGUUUC | -1.61 ± 0.063 | -0.982 ± 0.084
CAUAAGCAAUAUUACGCGAU | -3.46 ± 0.26 | -3.08 ± 0.28
GUGCAGCAAUAUUACGCACG | -2.88 ± 0.38 | -2.85 ± 0.45
AUUCAGCAAUAUUACGCGGG | -2.38 ± 0.15 | -0.332 ± 0.11
CCAUAGCAAUAUUACGUGGG | -4.18 ± 0.16 | -2.96 ± 0.15
GGCCAGCAAUAUUACGGGUG | -1.02 ± 0.049 | -0.536 ± 0.065
GAAGAGCAAUAUUACGAGGU | -4.02 ± 0.39 | -3.52 ± 0.33
UAUUAGCAAUAUUACGCUCA | 0.0548 ± 0.15 | 0.336 ± 0.17
UCCCAGCAAUAUUACGUAGG | -4.06 ± 0.17 | -1.08 ± 0.11
CAAUAGCAAUAUUACGAUAC | -3.17 ± 0.19 | -2.41 ± 0.16
CAUUAGCAAUAUUACGAAUU | -2.07 ± 0.22 | -1.2 ± 0.17
CUUCAGCAAUAUUACGUACC | -2.36 ± 0.3 | -2.12 ± 0.24
CCACAGCAAUAUUACGCCAU | -3.59 ± 0.2 | -1.36 ± 0.21
AUCAAGCAAUAUUACGCCAC | -1.42 ± 0.29 | -1.79 ± 0.4
UACUAGCAAUAUUACGGUUU | -1.41 ± 0.1 | -0.44 ± 0.12
UUCUAGCAAUAUUACGUUAG | -3.63 ± 0.29 | -2.67 ± 0.37
CACAAGCAAUAUUACGUGCA | -2.56 ± 0.11 | -1.55 ± 0.093
CGCGAGCAAUAUUACGCCGG | -2.19 ± 0.25 | -1.58 ± 0.44
UGAAAGCAAUAUUACGUUAG | -1.1 ± 0.086 | -0.448 ± 0.096
UCUAAGCAAUAUUACGAACG | -1.64 ± 0.094 | -1.28 ± 0.11
